Reference: publication doi:10.1101/2023.12.13.571598

Target: P301S tauRD-mEOS3.2 (human)
Assay: FRET or BRET

“P301S tauRD-mEOS3.2 (domain or fragment)” showed a percent FRET-positive cells (100 nM recombinant tau fibrils) of 74%.
